# B1: AnkG (R1-R5), head-section of the membrane-binding domain of rat ankyrin-G (domain or fragment)
# chain: GTKSDANASYLRAARAGHLEKALDYIKNGVDVNICNQNGLNALHLASKEGHVEVVSELLQREANVDAATKKGNTALHIASLAGQAEVVKVLVTNGANVNAQSQNGFTPLYMAAQENHLEVVRFLLDNGASQSLATEDGFTPLAVALQQGHDQVVSLLLENDTKGK
# notes: two extra residues, Gly-Thr, left at the N-terminus after the TEV cleavage; In the oxidized form two chains are linked by a disulfide bond between the two Cys70 residues; in the reduced form Cys70 is free; also called ANK3 (R1-R5); AnkG palmitoylation domain; source: E. coli BL21(DE3)pLysS, purified (nickel column, TEV cleavage, superdex200 gel filtration); not shown: His tag, N-terminal, cleaved
# Target: the molecule itself
# Experiment: crystal structure; oxidized form, C121 crystal; sitting-drop vapor diffusion at 20 °C; reservoir 10 mM MgCl2-hexahydrate, 50 mM Tris-HCl (pH 7.5), 1.6 M (NH4)2SO4; asymmetric unit holds one dimeric molecule
protein,measurement,value
B1,stoichiometry N,2
